According to PMC11355449, “The Discovery and Characterization of a Potent DPP-IV Inhibitory Peptide from Oysters for the Treatment of Type 2 Diabetes Based on Computational and Experimental Studies” (Marine Drugs, 2024):
Where two headings read alike, the source gives them in different places. No end group written: not given here.

Assays:
[1] = target: T1, DPP-IV (Homo sapiens, UniProt P27487); settings: read-out: IC50, DPP-IV inhibition, cited from earlier work
T1 construct: purchased Cayman Chemical 700210

[2] = target: T1, DPP-IV; assay: DPP-IV inhibitory activity in vitro (Cayman DPP (IV) inhibitor screening assay kit); type: biochemical; settings: substrate Gly-Pro-AMC, 37 °C, 30 min, fluorescence 355/460 nm; dose–response range from 0.52 to 3.65 μM; drc package in R; read-out: IC50, DPP-IV inhibition
Experimental: Based on the results of the virtual screening, the optimal oyster peptide (key peptide sequences with potent DPP-IV inhibition) was selected and synthesized by Wuxi Maimertop Biotechnology Co., Ltd. (Wuxi, China). Then, the synthesized peptide was subjected to the DPP-IV inhibition activity verification. The DPP-IV inhibitory activity was determined following the instructions of commercial kits: a DPP (IV) inhibitor screening assay kit (700210 Cayman chemicals, USA). Briefly, 30 µL of assay buffer, 10 µL of DPP-IV enzyme, and 10 µL of peptide solution were added to a 96-well plate. Then, 50 µL of substrate (Gly-Pro-AMC, Sigma-Aldrich, Saint Louis, MO, USA) was added to start the reaction. After incubation at 37 °C for 30 min, the absorbance of the reaction mixture was detected under excitation and emission wavelengths of 355 nm and 460 nm, respectively. The DPP-IV inhibitory activity was calculated using the following formula:(1) DPP-IV Inhibition (%)=A− B/A×100% where A was the average fluorescence of 100% initial activity (blank) and B was the fluorescence of the sample.
The 50% inhibitory concentration (IC50) of DPP-IV enzyme activity was calculated using the drc package (https://cran.r-project.org/web/packages/drc/ accessed on 20 July 2024) in R 4.1.2.

[3] = food-derived peptides from silver carp proteins
[4] = food-derived peptides from Sorghum bicolor
[5] = food-derived peptides from sheep

T1 sequence (P27487 whole entry): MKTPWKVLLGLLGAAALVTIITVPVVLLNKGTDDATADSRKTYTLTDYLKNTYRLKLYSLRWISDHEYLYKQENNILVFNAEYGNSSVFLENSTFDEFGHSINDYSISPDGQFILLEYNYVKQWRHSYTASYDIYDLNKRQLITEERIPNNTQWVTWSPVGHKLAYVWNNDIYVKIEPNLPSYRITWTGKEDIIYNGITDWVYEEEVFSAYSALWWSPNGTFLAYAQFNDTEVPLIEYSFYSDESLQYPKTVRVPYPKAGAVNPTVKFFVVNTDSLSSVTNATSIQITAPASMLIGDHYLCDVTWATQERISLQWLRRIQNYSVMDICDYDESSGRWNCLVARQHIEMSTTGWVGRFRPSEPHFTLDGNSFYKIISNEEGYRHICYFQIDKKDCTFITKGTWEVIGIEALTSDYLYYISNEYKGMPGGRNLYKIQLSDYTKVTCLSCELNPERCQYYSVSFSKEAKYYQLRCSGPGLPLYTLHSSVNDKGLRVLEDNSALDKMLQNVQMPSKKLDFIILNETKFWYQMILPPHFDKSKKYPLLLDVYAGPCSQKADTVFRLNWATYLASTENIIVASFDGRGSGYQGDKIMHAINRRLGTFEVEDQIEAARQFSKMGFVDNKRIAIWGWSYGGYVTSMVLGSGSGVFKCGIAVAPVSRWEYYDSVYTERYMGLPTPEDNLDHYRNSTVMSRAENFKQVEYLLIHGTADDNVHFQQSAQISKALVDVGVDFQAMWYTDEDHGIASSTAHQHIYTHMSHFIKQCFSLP

APGPAG [food-derived peptide from silver carp proteins]
IC50 [1, 3]: 229 µM

LPIIDI [food-derived peptide from silver carp proteins]
IC50 [1, 3]: 105 µM

LRGFGNPPT
IC50 [2]: 1.56 µM

LSICGEESFGTGSDHIR [food-derived peptide from Sorghum bicolor]
IC50 [1, 4]: 73.5 µM

MQEHFTCCR [food-derived peptide from sheep]
IC50 [1, 5]: 215 µM

QLRDIVDK [food-derived peptide from Sorghum bicolor]
IC50 [1, 4]: 8.55 µM

RLYLHENK [food-derived peptide from sheep]
IC50 [1, 5]: 166 µM

SLGESLLQEDVEAHK [food-derived peptide from Sorghum bicolor]
IC50 [1, 4]: 82.5 µM
